Biological target: tissue factor (TF) (human) (UniProt P13726)
Experiment: SPR (ProteOn), Fab captured on anti-penta His, TF analyte, 1:1 fit

Sequence of tissue factor (TF) (human) (P13726 33-251 limits assumed): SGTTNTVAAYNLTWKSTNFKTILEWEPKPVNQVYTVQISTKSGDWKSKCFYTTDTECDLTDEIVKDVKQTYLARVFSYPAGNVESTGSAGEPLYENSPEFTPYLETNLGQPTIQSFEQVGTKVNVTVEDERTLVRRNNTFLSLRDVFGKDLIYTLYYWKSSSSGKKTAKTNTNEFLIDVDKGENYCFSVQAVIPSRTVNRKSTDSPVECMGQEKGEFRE

Row | Substance | Kd [nM] | change in KD vs wild type, -(log(KD design)-log(KD wt))
1 | H1L1 Fab heterodimer of LCCA set 9213 (D3H44 Fab; H: L124E_L143D_K145T; L: Q124K_V133G_S176R) | 0.2 | -0.11
2 | H1L1 Fab heterodimer of LCCA set 9259 (D3H44 Fab; H: L124E_L143E_K145M; L: Q124K_V133G_S176R_T178K) | 0.24 | -0.19
3 | H1L1 Fab heterodimer of LCCA set 9351 (D3H44 Fab; H: L124R_D146N_Q179K; L: Q124E_V133G_S176D_T178E_T180E) | 0.2 | -0.1
4 | H1L1 Fab heterodimer of LCCA set 9364 (D3H44 Fab; H: L124R_D146N_Q179K; L: V133G_S176D_T180E) | 0.15 | 0.01
5 | H1L1 Fab heterodimer of LCCA set 9447 (D3H44 Fab; H: L124R_Q179K; L: V133G_S176D_T180E) | 0.28 | -0.26
6 | H1L1 Fab heterodimer of LCCA set 9491 (D3H44 Fab; H: L124R_S186K; L: V133G_S176D_T180E) | 0.24 | -0.19
7 | H1L1 Fab heterodimer of LCCA set 9566 (D3H44 Fab; H: L124W_L143F; L: V133A) | 0.25 | -0.21
8 | H1L1 Fab heterodimer of LCCA set 9573 (D3H44 Fab; H: L143A_Q179K; L: Q124E_V133Y_T180E) | 0.27 | -0.23
9 | H1L1 Fab heterodimer of LCCA set 9704 (D3H44 Fab; H: L143E_K145T_S188L; L: Q124R) | 0.21 | -0.12
10 | H1L1 Fab heterodimer of LCCA set 9725 (D3H44 Fab; H: L143E_K145T_S188L; L: Q124R_Q160K_T178R) | 0.24 | -0.19
11 | H1L1 Fab heterodimer of LCCA set 9732 (D3H44 Fab; H: L143K; L: Q124E_V133D_S176L) | 0.28 | -0.25
12 | H1L1 Fab heterodimer of LCCA set 9734 (D3H44 Fab; H: L143K_D146G; L: Q124E_V133D) | 0.26 | -0.22
13 | H1L1 Fab heterodimer of LCCA set 9737 (D3H44 Fab; H: L143R; L: Q124E_V133E) | 0.2 | -0.09
14 | H1L1 Fab heterodimer of LCCA set 9743 (D3H44 Fab; H: L143R; L: Q124E_V133E_S176L) | 0.28 | -0.25
15 | H1L1 Fab heterodimer of LCCA set 9906 (D3H44 Fab; H: S188G; L: S176L) | 0.11 | 0.14
16 | H1L1 Fab heterodimer of LCCA set 9911 (D3H44 Fab; H: S188L; L: WT) | 0.09 | 0.27
17 | H1L1 Fab heterodimer of LCCA set 9914 (D3H44 Fab; H: S188L_V190F; L: WT) | 0.15 | 0.01
18 | H1L1 Fab heterodimer of LCCA set 9917 (D3H44 Fab; H: S188L_V190Y; L: V133S) | 0.1 | 0.2
19 | H1L1 Fab heterodimer of LCCA set 9987 (D3H44 Fab; H: L143E_K145T; L: Q124R_T178R) | 0.11 | 0.15

Biological target: tissue factor (TF) antigen (UniProt P13726)
Sequence (P13726 33-251 limits assumed): as above
Experiment: SPR, Fab captured on anti-penta-His, TF as analyte, 1:1 fit

Row | Substance | Change in KD with respect to wild type (-(log(KD design) - log(KD wt))) | Kd [nM]
20 | D3H44 Fab heterodimer, H L124E_L143D_K145M / L Q124K_V133G_S176R_T178K | -0.15 | 0.22
21 | D3H44 Fab heterodimer, H L124E_L143D_K145T / L Q124K_V133G_S176R_T178K | -0.08 | 0.19
22 | D3H44 Fab heterodimer, H L124E_L143D_K145T / L Q124K_V133G_S176R_T178R | -0.02 | 0.15
23 | D3H44 Fab heterodimer, H L124E_L143E_K145M / L Q124K_V133G_S176R_T178K | -0.19 | 0.24
24 | D3H44 Fab heterodimer, H L124E_L143E_K145M / L Q124K_V133G_S176R_T178R | -0.29 | 0.31
25 | D3H44 Fab heterodimer, H L124R_S186R / L V133G_S176D_T178E_T180E | -0.15 | 0.22

Biological target: tissue factor (TF) antigen (UniProt P13726)
Experiment: SPR, Fab captured on anti-penta His surface, TF as analyte, 1:1 fit

Row | Substance | Change in KD with respect to wild type (-(log(KD design) - log(KD wt))) | Kd [nM]
26 | D3H44 Fab heterodimer, H1L1 of LCCA Set # 9074 (H1 H172R_Q179K; L1 Q124E_Q160E_T180E) | -0.01 | 0.16
27 | D3H44 Fab heterodimer, H1L1 of LCCA Set # 9099 (H1 L124A_Q179K; L1 Q124E_V133W_S176T_T178L_T180E) | -0.09 | 0.19
28 | D3H44 Fab heterodimer, H1L1 of LCCA Set # 9754 (H1 L45P_L143E_K145T_Q179E; L1 P44F_Q124R_Q160K_T178R) | -0.28 | 0.3
29 | D3H44 Fab heterodimer, H1L1 of LCCA Set # 9760 (H1 Q179K; L1 Q124E_Q160E_T180E) | -0.31 | 0.32
30 | D3H44 Fab heterodimer, H1L1 of LCCA Set # 9817 (H1 Q39E_L143E_K145T; L1 Q38R_Q124R_Q160K_T178R) | -0.05 | 0.18
31 | D3H44 Fab heterodimer, H1L1 of LCCA Set # 9818 (H1 Q39E_L143E_K145T_H172R; L1 Q38R_Q124R_Q160K_T178R) | -0.07 | 0.18
32 | D3H44 Fab heterodimer, H1L1 of LCCA Set # 9819 (H1 Q39E_L143E_K145T_H172R_Q179E; L1 Q38R_Q124R_Q160K_T178R) | 0.03 | 0.15
33 | D3H44 Fab heterodimer, H1L1 of LCCA Set # 9820 (H1 Q39E_L143E_K145T_Q179E; L1 Q38R_Q124R_Q160K_T178R) | -0.1 | 0.2
34 | D3H44 Fab heterodimer, H1L1 of LCCA Set # 9822 (H1 Q39R_D146G_Q179K; L1 Q38E_Q124E_Q160E_T180E) | 0.17 | 0.11
35 | D3H44 Fab heterodimer, H1L1 of LCCA Set # 9823 (H1 Q39R_H172R_Q179K; L1 Q38E_Q124E_Q160E_T180E) | -0.18 | 0.24
36 | D3H44 Fab heterodimer, H1L1 of LCCA Sets # 9076, 9077 and 9078 (H1 H172T_Q179K; L1 Q124E_N137K_Q160E_S174R_T180E) | 0.01 | 0.15
